Data published in article PMC10786891, “Massively parallel profiling of RNA-targeting CRISPR-Cas13d”.
Positions count from the first letter of the chain named. In names and notes the source's numbering stands.

T1: EsCas13d, nuclease-dead (Eubacterium siraeum, UniProt B0MS50, R295A;H300A;R849A;H854A)
T1 sequence: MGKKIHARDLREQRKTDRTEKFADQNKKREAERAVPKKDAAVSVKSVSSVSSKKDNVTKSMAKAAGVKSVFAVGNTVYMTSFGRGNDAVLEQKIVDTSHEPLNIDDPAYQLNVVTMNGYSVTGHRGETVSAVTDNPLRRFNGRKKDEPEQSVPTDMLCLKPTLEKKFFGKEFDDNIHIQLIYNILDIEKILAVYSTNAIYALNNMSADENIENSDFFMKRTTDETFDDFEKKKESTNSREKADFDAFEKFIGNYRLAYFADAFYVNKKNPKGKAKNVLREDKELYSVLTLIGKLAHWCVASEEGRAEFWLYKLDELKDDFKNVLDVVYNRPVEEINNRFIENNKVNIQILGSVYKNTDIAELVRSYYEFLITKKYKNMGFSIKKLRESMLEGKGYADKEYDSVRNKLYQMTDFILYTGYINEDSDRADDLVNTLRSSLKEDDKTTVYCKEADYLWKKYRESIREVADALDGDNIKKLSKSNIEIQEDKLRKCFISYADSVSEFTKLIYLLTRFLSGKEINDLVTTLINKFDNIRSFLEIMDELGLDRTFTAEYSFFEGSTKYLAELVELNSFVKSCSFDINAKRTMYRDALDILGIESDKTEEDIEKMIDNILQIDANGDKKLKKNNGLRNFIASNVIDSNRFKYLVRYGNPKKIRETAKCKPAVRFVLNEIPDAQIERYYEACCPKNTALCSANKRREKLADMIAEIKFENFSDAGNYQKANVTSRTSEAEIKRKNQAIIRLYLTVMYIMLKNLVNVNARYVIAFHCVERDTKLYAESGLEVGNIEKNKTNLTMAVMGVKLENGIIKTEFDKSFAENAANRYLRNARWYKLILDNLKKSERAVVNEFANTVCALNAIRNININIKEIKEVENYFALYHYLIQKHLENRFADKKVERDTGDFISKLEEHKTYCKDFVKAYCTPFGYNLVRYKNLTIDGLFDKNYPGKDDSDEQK

B1: target 3 insA 3' of 6,insG 3' of 1 (mixed)
RNA 1: CACCCGUGCAAAAUUGCAGGGGUCUAAAACGACCUGAAUAUUUCAGAUCAAA
RNA 2: GGGAAUGGAUCCACAUCUACGAAUUCGUUUUUGAUCUGAAAUAUUCAAGGUCGUGCAGAUCGGAAGAGCACACGU
B2: target 3 G4A,U7G (mixed)
RNA 1: B1 RNA 1
RNA 2: GGGAAUGGAUCCACAUCUACGAAUUCGUUUUUGAUCUGAAAUAUGCAAGUCUGCAGAUCGGAAGAGCACACGU
B3: target 3 C1G,U7C (mixed)
RNA 1: B1 RNA 1
RNA 2: B2 RNA 2 with G45C, A48G, C51G
B4: target 3 insC 3' of 12,insU 3' of 3 (mixed)
RNA 1: B1 RNA 1
RNA 2: B1 RNA 2 with A41C, U42A, A43U, U44A, C46U, A47C, C52U, G53C
B5: target 3 insU 3' of 3,insA 3' of 2 (mixed)
RNA 1: B1 RNA 1
RNA 2: B1 RNA 2 with A48G, G50U, C52A, G53C
B6: target 3 A5C,U7A (mixed)
RNA 1: B1 RNA 1
RNA 2: B2 RNA 2 with G45A, A47C, A48G
B7: target 3 G4U,G19U (mixed)
RNA 1: B1 RNA 1
RNA 2: B2 RNA 2 with G33U, G45U, A48U
B8: target 3 C6G,U22C (mixed)
RNA 1: B1 RNA 1
RNA 2: B2 RNA 2 with U30C, G45U, C46G, A48G
B9: target 3 C6U,A18G (mixed)
RNA 1: B1 RNA 1
RNA 2: B2 RNA 2 with A34G, G45U, C46U, A48G
B10: target 3 insA 3' of 21,insC 3' of 21 (mixed)
RNA 1: B1 RNA 1
RNA 2: GGGAAUGGAUCCACAUCUACGAAUUCGUUUUACUGAUCUGAAAUAUUCAGGUCUGCAGAUCGGAAGAGCACACGU
B11: target 3 insU 3' of 16,insU 3' of 16 (mixed)
RNA 1: B1 RNA 1
RNA 2: B10 RNA 2 with A32U, C33G, U34A, G35U, A36C, C38U
B12: target 3 insC 3' of 3 (mixed)
RNA 1: B1 RNA 1
RNA 2: GGGAAUGGAUCCACAUCUACGAAUUCGUUUUUGAUCUGAAAUAUUCAGGCUCUGCAGAUCGGAAGAGCACACGU
B13: target 3 insU 3' of 11,insC 3' of 3 (mixed)
RNA 1: B1 RNA 1
RNA 2: B1 RNA 2 with A43U, U44A, C46U, A47C, U51C, C52U, G53C
B14: target 3 insA 3' of 10,insC 3' of 10 (mixed)
RNA 1: B1 RNA 1
RNA 2: B1 RNA 2 with U44C, U45A, C46U, A47U, A48C, G49A, U51G, C52U, G53C
B15: target 3 G4A,U22A (mixed)
RNA 1: B1 RNA 1
RNA 2: B2 RNA 2 with U30A, G45U
B16: target 3 insG 3' of 5,insC 3' of 4 (mixed)
RNA 1: B1 RNA 1
RNA 2: B1 RNA 2 with A48G, G50C, U51G, C52U, G53C
B17: target 3 insA 3' of 22,insU 3' of 22 (mixed)
RNA 1: B1 RNA 1
RNA 2: B10 RNA 2 with U31A, A32U, C33U
B18: target 3 insC 3' of 3,insG 3' of 1 (mixed)
RNA 1: B1 RNA 1
RNA 2: B1 RNA 2 with A48G, G50C
B19: target 3 del1,del22 (mixed)
RNA 1: B1 RNA 1
RNA 2: GGGAAUGGAUCCACAUCUACGAAUUCGUUUUGAUCUGAAAUAUUCAGGUUGCAGAUCGGAAGAGCACACGU
B20: target 3 insU 3' of 13,insU 3' of 4 (mixed)
RNA 1: B1 RNA 1
RNA 2: GGGAAUGGAUCCACAUCUACGAAUUCGUUUUUGAUCUGAUAAUAUUCAGUGUCUGCAGAUCGGAAGAGCACACGU
B21: target 3 insA 3' of 6,insA 3' of 6 (mixed)
RNA 1: B1 RNA 1
RNA 2: B1 RNA 2 with G49A, U51G, C52U, G53C
B22: target 3 insU 3' of 11,insU 3' of 6 (mixed)
RNA 1: B1 RNA 1
RNA 2: B20 RNA 2 with U40A, A42U, A48U, G49A, U50G
B23: target 3 insG 3' of 9,insA 3' of 2 (mixed)
RNA 1: B1 RNA 1
RNA 2: B1 RNA 2 with U44G, C46U, A47C, C52A, G53C
B24: target 3 G3C,A11G (mixed)
RNA 1: B1 RNA 1
RNA 2: B2 RNA 2 with A41G, G45U, A48G, G49C
B25: target 3 del22 (mixed)
RNA 1: B1 RNA 1
RNA 2: GGGAAUGGAUCCACAUCUACGAAUUCGUUUUGAUCUGAAAUAUUCAGGUCUGCAGAUCGGAAGAGCACACGU
B26: target 3 insA 3' of 8,insU 3' of 5 (mixed)
RNA 1: B1 RNA 1
RNA 2: B1 RNA 2 with U45A, C46U, A47C, G49U, U51G, C52U, G53C
B27: target 3 insC 3' of 3,insA 3' of 1 (mixed)
RNA 1: B1 RNA 1
RNA 2: B1 RNA 2 with A48G, G50C, G53A
B28: target 3 insG 3' of 7,insC 3' of 2 (mixed)
RNA 1: B1 RNA 1
RNA 2: B1 RNA 2 with C46G, A47C, G53C
B29: target 1 G5C,C22U (mixed)
RNA 1: CACCCGUGCAAAAAUGCAGGGGUCUAAAACUGAGCGGAUAACCUCUCUAUGG
RNA 2: GGGAAUGGAUCCACAUCUACGAAUUCGUAUCAUAGAGAGGUUAUCCCCUCACCGAGAUCGGAAGAGCACACGU
B30: target 1 insG 3' of 19,insG 3' of 3 (mixed)
RNA 1: B29 RNA 1
RNA 2: GGGAAUGGAUCCACAUCUACGAAUUCGUACCAUGAGAGAGGUUAUCCGCUGCACCGAGAUCGGAAGAGCACACGU
B31: target 1 insG 3' of 20,insG 3' of 3 (mixed)
RNA 1: B29 RNA 1
RNA 2: B30 RNA 2 with U33G, G34U
B32: target 1 insU 3' of 12,insC 3' of 12 (mixed)
RNA 1: B29 RNA 1
RNA 2: GGGAAUGGAUCCACAUCUACGAAUUCGUACCAUAGAGAGGUCUUAUCCGCUCACCGAGAUCGGAAGAGCACACGU

Target: T1, EsCas13d, nuclease-dead
Assay: crRNA (strand 1, pre-loaded); Mg2+; 40 mM Tris-HCl pH 7.5, 150 mM NaCl, 6 mM MgCl2, 1 mM DTT, 0.1% Tween-20, 0.2 mg/ml BSA; 25 C; 10 min per concentration, then washed
Details: tags: His6-TwinStrep-SUMO cleaved; N-terminal SNAP kept (SNAP-Surface 488); label: 3' end held by stalled T7 RNA polymerase

B1 and B2 are within error of each other in Kd: 32 ± 11 nM for the first, 30.2 ± 3.35 nM for the second.

B3 and B4 are within error of each other in Kd: 73.5 ± 36 nM for the first, 106 ± 34 nM for the second.

Going from B5 to B6, the Kd rises from 39 ± 5 nM to 77.5 ± 13.5 nM (2-fold). The first binds more tightly here.

Compared with B7, B8 is 2.1-fold lower in Kd: 77.5 ± 10 nM for the first, 36.5 ± 6 nM for the second.

First: B9
Second: B10
The Kd of the first is 2.3-fold lower: 20.3 ± 2.65 nM for the first, 47 ± 11.5 nM for the second. The first binds more tightly here.

Going from B11 to B12, the Kd falls from 76.5 ± 12 nM to 19.4 ± 2.05 nM (3.9-fold). The second binds more tightly here.

B13 and B14 are within error of each other in Kd: 58 ± 9.5 nM for the first, 100 ± 37.5 nM for the second.

B15 and B16 are within 1.5-fold of each other in Kd: 5.71 ± 0.47 nM for the first, 7.65 ± 1.2 nM for the second.

First: B17
Second: B18
The Kd of the first is 1.9-fold lower: 14.6 ± 1.45 nM for the first, 27.1 ± 7.05 nM for the second.

B19 and B20 are within error of each other in Kd: 29 ± 6 nM for the first, 49.5 ± 17.5 nM for the second.

First: B21
Second: B22
The Kd of the first is 19-fold lower: 4.96 ± 0.355 nM for the first, 95 ± 14.5 nM for the second. The first binds more tightly here.

Going from B23 to B24, the Kd falls from ~102 nM to 61 ± 12 nM (1.7-fold).

Going from B25 to B26, the Kd rises from 10.3 ± 1.2 nM to 33.9 ± 3.75 nM (3.3-fold).

B27 and B28 are within error of each other in Kd: 83 ± 17 nM for the first, 88 ± 17.5 nM for the second.

First: B29
Second: B30
The Kd of the first is 1.8-fold lower: 22.6 ± 2.9 nM for the first, 41 ± 2.4 nM for the second. The first binds more tightly here.

B31 and B32 are within error of each other in Kd: 31 ± 9 nM for the first, 27.6 ± 2.9 nM for the second.
